Experimental data from PMC12698293.

Biological target: LgBiT (large BiT fragment of split NanoLuc) secreted from GCN4-LgBiT receiver cells
Assay: split reporter

- fold signal turn-on (co-culture against cells cultured individually): > 130 fold
Substance: scFv-SmBiT fusion secreted by sender^high cells (anti-GCN4 scFv, HA tag, G4Sx4 linker, high-affinity SmBiT peptide)
